# Source: the DeepSol protein solubility set
# Test: soluble on expression in E. coli; label from the status in PepcDB or PDB records
row,Sequence,soluble on expression in E. coli
1,MKARQQKYCDKIANFWCHPTGKIIMSLAGKKIVLGVSGGIAAYKTPELVRRLRDRGADVRVAMTEAAKAFITPLSLQAVSGYPVSDSLLDPAAEAAMGHIELGKWADLVILAPATADLIARVAAGMANDLVSTICLATPAPVAVLPAMNQQMYRAAATQHNLEVLASRGLLIWGPDSGSQACGDIGPGRMLDPLTIVDMAVAHFSPVNDLKHLNIMITAGPTREPLDPVRYISNHSSGKMGFAIAAAAARRGANVTLVSGPVSLPTPPFVKRVDVMTALEMEAAVNASVQQQNIFIGCAAVADYRAATVAPEKIKKQATQGDELTIKMVKNPDIVAGVAALKDHRPYVVGFAAETNNVEEYARQKRIRKNLDLICANDVSQPTQGFNSDNNALHLFWQDGDKVLPLERKELLGQLLLDEIVTRYDEKNRR,not soluble
2,MGHHHHHHSHMRFFHWFSKWRKLHRDQEYEVTWYISWSPCTKCTRDMATFLAEDPKVTLTIFVARLYYFWDPDYQEALRSLCQKRDGPRATMKIMNYDEFQHCWSKFVYSQRELFEPWNNLPKYYILLHIMLGEILR,not soluble
3,MGSDKIHHHHHHMIDPAGRTTAWEYDAYGSLLVQTLPDGSAVRTEFDLDHRPVCMTLIGGRQWGYEWNTFGNLLAQSDPSGAISRYTYDEYGQLVEHTGPRGASTRFDYHPDGNLAAQIDALGHRTQYRYDARGYLGEAIDALGQQSQYEYDRNGHLTRAIEPGGREIHCAYDADGNLSRHRDPMGHVTQMEYSALGQVSRRLAPDGTTVEYRYDTEEQLIGVVNERSELYALERDALGRIVVETDYWGQARRYRYGAAGELLCSTDPLGQTVEYRYDWLGRIVQKRVPHPEQDEALQIDSFAYDRHGDLVLAENPSCRVEFDYDAAGRMIEERQGDDFTIASDYDEAVTCPLR,not soluble
4,MKIVCIGAAPTALGAAYRLNELKNEGNEAAQNAEIVLLEQEAIAGGLSCTVTDEKGFLWDMGGHITFNHNYPYYEKATQWAVDDWNKLARNCMVDMNYLYDKKGIHLVPYPAQFAVPLFPDEVKNRCLADLKERYENPQDGTTPDNFEEWVLQHFGPTILNTFFKPYTKKVWTVEPLKMSPNWVGSRVAKLPQEKLEELCSMDQAELANADFGWGPNSYFTFPTYGGTGNVWNSMAKKLPNEWFKFNNKVTGVDHKEKTVEILEKGQTEPTKMSYDVLLNTAPIDQLVNNTQITAPLDIVHNKVFIVGVGLRKPMTSFLEKFTWLYFPDREVPFFRVTILSRYGEVTPDGDKYWSVMCECARPIDDPITEEEMVKKTLDGLVIKDMITREAIESVYSITLPYGYPIPTPNRDRELARAHGELERHQIYSRGRFGGWKYEASNQDHCFIQGKEFIDRVILGEPEKLYKTGVPTIPRGAAALEHHHHHH,soluble
5,MPKSNRRIVRARDSKGRFLPGKKAKSVASKSRSRSRSRSVVSRKTTRTNSLTRRRSSTKAPSSARQSRSRSRSRSRSRSKSRSTSSRRSRSRSARRVSFKRGRPASFAMKSPEEKTAAKKTAAKIILRVD,not soluble
6,MGSDKIHHHHHHMSKIKVALLVDEYFGGAKTKYGGYGFLARHLVAKHLPDDQVDVDVLLKKDCGKVRLWPKCFMVDGIRVYKLAARAFDWVNNLFLRQKNYDVFLSIEMTTHSYRIFSKAPGKNKKLLFWIQDPRPTYEWDEIQTVKLFPEPSYWDAEIYDFVNQYARSGNVRFISQAKCLDQKARDLYRLPANTSINYLPNPIEIDETFDLDSFPKQNSIIFLGRIESVKRGWLFAEIAKAMPQCQFYMLGQAHRQADENNAVMSGYQAIPNLHFVGHVEGEQKNRFLKEAKVLVNTSIHEALPISFLEALSYGTLLVSCQNPDELASKFGVYTGKVLGDGFDKVELFVAGINQLLTNDDHRHQLAKDAIAYIKEVHSLSRFTGDIKHELLTLCASRNEPVKATGRTTTSTVQ,not soluble
7,QVQLVESGGNLVQPGGSLRLSCAASGFTFGSFSMSWVRQAPGGGLEWVAGLSARSSLTHYADSVKGRFTISRDNAKNSVYLQMNSLRVEDTAVYYCARRSYDSSGYWGHFYSYMDVWGQGTLVTVS,soluble
8,PHFLILNGPNVNRLGSREPEVFGRQTLTDIETDLFQFAEALHIQLTFFQSNHEGDLIDAIHEAEEQYSGIVLNPGALSHYSYAIRDAVSSISLPVVEVHLSNLYAREEFRHQSVIAPVAKGQIVGLGAEGYKLAVRYLLSQQG,soluble
9,MSLSAGDSMPGPKSTFRVGVWEDRNKKCRRTMEDTHAFLYNFVQTPALNDASAKDKPEGDDLVTSDMVESDNGYFAIFDGHAGTFAADWCGKKLHIILEDIIRKNPNALIPEVLDQAFTAADAQLEKLPLKNSGCTAAVAVLRWEDRASNDRSAIKPVKPEEPIEMDKANDGSSNEEATKATNSKGKGSGRQRVLYTANVGDARIILCRGGKALRLSYDHKGSDEVEGKRIAAAGGLILNNRVNGVLAVTRALGDAYMKKLVTGHPYTTETVIQPDSDEFIIIACDGIWDVCSDQEAVDLVRNVNDPISASKQLVDYALNRFSTDNLSCMVVRLDQNKEAAVEEGHHHHHH,soluble
10,MPPKIAEVIQHDVCAACGACEAVCPIGAVTVKKAAEIRDPNDLSLYEKGAAFQVCEGCLTCSRICPVVDGFIENELLNVRKFFGAKSKDNAGSQDGGVTSGILKALFNKGEIDCAVGITRNENWEPEVVLLTSAEDVERTRGTKYTSDPVVAALREAFEKYDRIAVVGVPCQAHAARLIRENVNEKIVLIIGLLCMESFHHDVMLDKIIPEIMKVNVRDIVKMEFTKGKFWVYTKDGEVHSVPIKDIAKYARNPCHHCCDYTSVFADISVGSVGAPDGWNSVFIRTEIGEKYFDMVRDEMEIMEDPKPGLELVGKLIEMKRKGNAEHFQEVCKEFSFETGIRSETVLEHHHHHH,soluble
11,MSLNASPQEDAGPEPVVYLVDDQQAELDLLQRWCSQEGLKTETFNQAEDLLKLLHADSHGCVVADLRMPRLSGLELQAEMSRRELTIPVILVTGHGDAENCRAAFQQGVFDFIEKGFRHEEILHAINSAIRKHRRDRFRHQVRKEALDLLRKISPRETEVMLLLAGGSPLKGIAQELSISVQTASKHRGSIFTKLNIDNEVDLYKMLLAAEVNLDVGEGHHHHHH,soluble
12,MGSDKIHHHHHHMKITQIRNATLQLEFGGKTFLIDPMLAPKATYPGFPGTANDHLRNPLVELPLPMATILDVDAVIVTHTHLDHWDDAAIKAIPKTMPIFSQNAQDADLIRRAGFISVRVLGEQMEYDGITLIKTAGQHGSDETYANPQLAERLGEVCGIVFQHANEKSFYLAGDTVWNQHVIDVLTDYSPDVVALNIGNAFIPSFGSIIMGKEDVRRVHQLVPNAAIVATHMEAVNHCLLSRAELRDYLHEEKLQSIAHVPNDGESVQF,not soluble
13,MNQAIGGSFDDVIGNHQADTAMIVQISADRKEINLVSIPRDSLVDVPQCETSKGTIPAQYNVMFNSIFAGAYKTGGDLSSAASCTLNAVNSLTGLNIQNFIVVDFAGLVKMIDSVGGVDLCIPQNVNDPYTGLNLDKGMHHLDGVAATQYARIRHGIGDGSDTSRTTRQQYLIKQLMSEALSKNLFTDTAQLYQLAKSALKSLNISQGMADTAALAGLAMSLKNFTMTNLQTQTVPVVPAPSDPNRSVWTDEADNLWEKMRAGKPIFDTADSNSGGSSDTSSDNSASSDDSGTTDSNQSDTTAETPDPVTGLITKSDGTLVDPSTGGTVDPDDGSIHDATTGQYIGLADRYLNATVCAVPAKNLEHHHHHH,soluble
14,MGSDKIHHHHHHAPGQTAQPGRPPTQPQGWSMTVGLAPVYGMAWQGSKDTALSIFPDLRVNYKDALFLSVPEGLGWNAVNANGWKAGPLLKARFGRNEDDGGSPFQIAGGSDALRGMGDIGIAGEAGAFVEKRFGTRQQWRARAEVRQGFGGHEGIVGDISLNWSGRTGRTILSAGPRATFASREYMQTYFGVDAVQASRTGLAASRLGGGLVSYGLGASIVQPLDRRRAVTVFGGADRLGGEPAGSSLIRERGQRTQFVVGVGYGFRFGL,not soluble
15,MNRVYVGTVSAVTDIGVFVNLNKRLRGLIHRRNLGNNRFSEDEEILVQVSGIGLSGEIDLKPVKMDGYKVVEISKEVGRVEIAELENLEHHHHHH,not soluble
16,MGSSHHHHHHSSGLVPRGSHMSKARVYADVNVLRPKEYWDYEALTVQWGEQDDYEVVRKVGRGKYSEVFEGINVNNNEKCIIKILKPVKKKKIKREIKILQNLCGGPNIVKLLDIVRDQHSKTPSLIFEYVNNTDFKVLYPTLTDYDIRYYIYELLKALDYCHSQGIMHRDVKPHNVMIDHELRKLRLIDWGLAEFYHPGKEYNVRVASRYFKGPELLVDLQDYDYSLDMWSLGCMFAGMIFRKEPFFYGHDNHDQLVKIAKVLGTDGLNAYLNKYRIELDPQLEALVGRHSRKPWLKFMNADNQHLVSPEAIDFLDKLLRYDHQERLTALEAMTHPYFQQVRAAENSRTRA,soluble
17,MGSDKIHHHHHHSDDINQKVAEQLAQKAQSSSLGYDIVESLTVEVGPRLAGSEQDKVAVDWAIAKLQSLGFDRVYKEPVTVPVWRRGIAKASILSPFPQPLVVTALGGSIATPAQGLSATIVRFDTLQDLQNAEAGSLNDKIAFIDAKTERHRDGKGYGQTASGRSRGAVAAAEKGAVGIIIRSIGTDHDRMAHTGMMRYEEGVTAIPAAAISNPDADLINAMLKRDKEVVISLELGSERRGETTSYNVIAEVKGSTKADEIVLIGAHLDSWDEGTGAIDDGAGVAIVTAAAKHILDLPQKPERTIRVVLYAAEELGLLGGKTYAKEHEAELEKHYIAAESDFGAGPIYQIDWRVADTAHSPVINAMKVAEPLGVAAGNNKASGGPDVSMLPALGVPVASLRQDGSDYFDYHHTPNDTLDKINPEALAQNVAVYAQFAWVMANSKVELRPLPPKE,not soluble
18,GADNNKWKPLFGKNLENANYNPEVWSETDGVLGAVKDESIWTKDEYENFELDLDFKTDVGTNSGVVVYCTDTKDWIPNSVEIQIADDHCEKWGNGKPYEKCGAIYGHLGAVQDKVVKKPGEWNHMRIKCAGQHIMVILNGKKVTEMDMSKWTSGTKNPDGSDIPSWLPKPFAELPTKGFIGLQGKHGDSLIWFRNIKIRSL,soluble
19,MAHHHHHHMPSMSASRQAPKVSATARATKFSTIRKLPTAEHSTSPVAAAPTSSEEPSRLALISFDVDATIDTVNLLHEEQHRVSEEDATDKRIGRYHYAQLVARLNEQRSLYQSTAMFVETMLKEVNHSTEASVAMKASAATWGLKLLAKHAGHGAINAVLESLLPALYCEYNPKKLCSAPPAVQLQVRRPDVIMDNPYFTHSMFVDEVQVDKRSATKLQKSLEAALRANDQRRSIVCHLIERRRQQQLEVTFRCWRHHVRQQHLLRMMGDNTAKQRAEEMSRLRVQTVFYHWKLLVERSRSTYLTERLHEAAFQLENAKNQFQLQCYRADRLVKTAKEATEEMERVSQINKGLQRQVDELKEEQVRKEREYKEKLTRNVTQVLKLLETYDSLARVLLHSKQADEYVMPEKPLLARHSQSGDGGQEASENEASRLR,not soluble
20,MGFLQRIGLLPQVTTTPTQHELLAPLLDTYIGVVTEMPTEELFAEQPHLRTVTTFIARAISSTSLHVYRRDSDGGRHRVRDSDLAKLMRRSSKTELMQDMLNGSILDLCLYDEFIWVAMEDSDSGEWELHRIPPTWIKQRKHSDPWTLEWMGIIDAKTGQQIKIPAERIIHVHGYNPTSTSRGLTPVVALRETLKEQLESAAYRGQLWRNGPRLGGVITRPKDAKWDSTSRKRFKAAWQSQYSGRGSGAGGTPILEDGMQFVPAHLKAQDEQVVEMTKLSLQTVASIYHVNPVMVGLLDNANYSNVREFRRSLYGDSLGPIIKQVEGVINEFLRPMIDDDDAVYVEFNLDEKLRASFEEKAAVTSTAVGGPWMTRNEARAMNNLPAIDGGEDLITPLNVTTENSESNNDVGLEEES,not soluble
